Measurements taken from patent US20260167731A1.

How the values were obtained:
[1] = target: human CCR8 (human) (UniProt P51685); test: cell-based or functional assay
[2] = target: human CCR8 (human) (UniProt P51685); test: flow cytometry, hCCR8 transfected CHOK1 cells

| Substance | EC80 of hCCL1, hCCR8 Gi2 BRET, HEK-293 in suspension (protocol #1) [1] | EC80 of hCCL1, hCCR8 Gi2 BRET, adherent HEK-293 (protocol #4) [1] | % positive cells [2] | MFI fold change to isotype ctrl [2] |
| --- | --- | --- | --- | --- |
| hCCL1 (from UniProt P22362 24-96) (ligand) | 6 nM | 0.6 nM |  |  |
| murine anti-human CCR8 monoclonal antibody L263G8 |  |  | 86.5% | 19.8 fold |
